Laboratory results as given in US20150057236A1 (CORNELL UNIVERSITY, published 2015).
*1 amine or outer side, *2 acyl side, *3 side chain or, on linkers, in order; H or OH if unused. Where no end group is shown, it is not given here. The star is where a group is joined. thiosuccinyl = thiosuccinyl group on a lysine side chain (thiosuccinyl lysine); AMC = Cc1cc(=O)oc2cc(N*)ccc12; Suc = O=C(CCC(=O)[*:2])[*:1]

How the values were obtained:
Assay in all cases: cell-based or functional assay
human Sirt5 [1] = target: T1, human Sirt5 (human, UniProt Q9NXA8 1-310, limits assumed)
T1 sequence (Q9NXA8 whole entry): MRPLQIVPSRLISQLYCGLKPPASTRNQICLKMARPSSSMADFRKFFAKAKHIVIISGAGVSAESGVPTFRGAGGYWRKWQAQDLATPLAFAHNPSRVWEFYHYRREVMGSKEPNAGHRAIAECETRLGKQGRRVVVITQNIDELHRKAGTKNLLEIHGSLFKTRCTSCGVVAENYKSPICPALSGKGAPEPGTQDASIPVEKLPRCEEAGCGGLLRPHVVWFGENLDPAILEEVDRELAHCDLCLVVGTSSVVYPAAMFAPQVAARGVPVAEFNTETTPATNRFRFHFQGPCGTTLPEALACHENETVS

human Sirt2 = target: T2, human Sirt2 (human, UniProt Q8IXJ6 1-389, limits assumed)
T2 sequence (looked up): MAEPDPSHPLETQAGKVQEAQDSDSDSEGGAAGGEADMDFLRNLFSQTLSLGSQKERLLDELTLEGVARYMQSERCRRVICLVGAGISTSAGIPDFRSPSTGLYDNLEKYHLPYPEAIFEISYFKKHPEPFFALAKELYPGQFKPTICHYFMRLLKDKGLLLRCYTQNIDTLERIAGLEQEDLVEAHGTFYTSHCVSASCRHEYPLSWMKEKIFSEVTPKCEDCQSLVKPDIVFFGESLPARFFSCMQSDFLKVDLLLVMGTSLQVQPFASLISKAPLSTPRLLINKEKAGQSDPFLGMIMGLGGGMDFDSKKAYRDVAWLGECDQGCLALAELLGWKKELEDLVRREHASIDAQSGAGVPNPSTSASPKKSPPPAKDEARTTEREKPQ

human Sirt5 [2] = target: T1, human Sirt5; remark: listed apart in the source
human Sirt1 = target: T3, human Sirt1 (human, UniProt Q96EB6 1-747, limits assumed)
T3 sequence (looked up): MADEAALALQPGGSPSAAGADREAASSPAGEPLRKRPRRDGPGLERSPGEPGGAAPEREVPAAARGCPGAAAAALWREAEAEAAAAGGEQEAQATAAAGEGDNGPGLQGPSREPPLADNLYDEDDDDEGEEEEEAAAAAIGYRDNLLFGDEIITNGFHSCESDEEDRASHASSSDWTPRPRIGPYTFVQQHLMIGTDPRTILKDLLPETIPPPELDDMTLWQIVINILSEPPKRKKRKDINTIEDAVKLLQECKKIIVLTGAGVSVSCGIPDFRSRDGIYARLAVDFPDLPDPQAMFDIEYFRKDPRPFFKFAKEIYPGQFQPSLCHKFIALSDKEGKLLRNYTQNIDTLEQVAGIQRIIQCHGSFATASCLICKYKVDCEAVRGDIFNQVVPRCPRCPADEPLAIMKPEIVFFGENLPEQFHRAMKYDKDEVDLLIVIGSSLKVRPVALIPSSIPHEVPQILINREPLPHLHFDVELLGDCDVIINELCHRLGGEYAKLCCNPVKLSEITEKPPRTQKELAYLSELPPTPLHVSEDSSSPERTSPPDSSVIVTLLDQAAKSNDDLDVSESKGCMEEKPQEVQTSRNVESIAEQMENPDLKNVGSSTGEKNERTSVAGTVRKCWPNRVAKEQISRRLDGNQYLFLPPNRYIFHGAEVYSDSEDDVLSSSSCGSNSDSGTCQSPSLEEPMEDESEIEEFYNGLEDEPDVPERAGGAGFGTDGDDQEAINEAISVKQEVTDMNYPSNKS

human Sirt3 = target: T4, human Sirt3 (human, UniProt Q9NTG7 102-399, limits assumed)
T4 sequence (looked up): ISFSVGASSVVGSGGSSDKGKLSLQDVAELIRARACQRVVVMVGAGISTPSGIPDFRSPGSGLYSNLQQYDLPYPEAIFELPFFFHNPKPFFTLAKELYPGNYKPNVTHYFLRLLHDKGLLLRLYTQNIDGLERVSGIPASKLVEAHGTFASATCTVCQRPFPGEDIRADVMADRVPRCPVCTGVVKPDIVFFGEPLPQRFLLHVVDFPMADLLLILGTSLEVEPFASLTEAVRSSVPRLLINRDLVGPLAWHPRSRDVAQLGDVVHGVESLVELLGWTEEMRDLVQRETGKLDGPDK

## KQTARK(Suc)-{AMC} [KQTAR(SuK)-AMC peptide]
Human Sirt5 [1]
  fluorescence increase against control without Sirt5 (fluorogenic assay): ~3 fold

## ISGASEK(Suc)-{AMC} [ISGASE(SuK)-AMC peptide]
Human Sirt5 [1]
  fluorescence increase against control without Sirt5, 1 µM Sirt5: 11 fold
  fluorescence increase against control without Sirt5, 2 µM Sirt5: 20 fold
  fluorescence increase against control without Sirt5, 5 µM Sirt5: 26 fold

## KQTARK(thiosuccinyl)STGGKA [H3K9 thiosuccinyl (H3K9 TSu) peptide, KQTAR(TSuK)STGGKA]
Human Sirt2
  IC50 (µM), inhibition of sirtuin deacylase activity: > 100 µM
Human Sirt5 [2]
  IC50 (µM), inhibition of sirtuin deacylase activity: 5 µM
Human Sirt1
  IC50 (µM), inhibition of sirtuin deacylase activity: > 100 µM
Human Sirt3
  IC50 (µM), inhibition of sirtuin deacylase activity: > 100 µM
